# Residue numbers refer to the chain shown, from its start.
# B1: H237-MB405/MRAL-k0 (antibody, mouse IgG1, kappa)
# heavy: QVQLQESGPGLVKPSETLSLTCAVSGHSISHDHAWSWVRQPPGEGLEWIGFISYSGITNYNPSLQGRVTISRDNSKNTLYLQMNSLRAEDTAVYYCARSLARTTAMDYWGEGTLVTVSSAKTTPPSVYPLAPGSAAQTNSMVTLGCLVKGYFPEPVTVTWNSGSLSSGVHTFPAVLQSDLYTLSSSVTVPSSTWPSETVTCNVAHPASSTKVDKKIVPRDCGCKPCICIAYEVEDVFIFPPKPKDVLTITLTPKVTCVVVDISKDDPEVQFSWFVDDVEVHTAQTQPREEQFNSTFRSVSELPIMHQDWLNGKEFKCRVNSAAFPAPIEKTISKTKGRPKAPQVYTIPPPKEQMAKDKVSLTCMITDFFPEDITVEWQWNGQPAENYKNTQPIMDTDGSYFVYSKLNVQKSNWEAGNTFTCSVLHEGLHNHHTEKSLSHSPGK
# light: not shown
# notes: copies: 2 + 2
# B2: H237-MB414/MRAL-k0 (antibody, mouse IgG1, kappa)
# heavy: B1 heavy with I229D, A230D
# light: not shown
# notes: copies: 2 + 2
# B3: H237-MB429/MRAL-k0 (antibody, mouse IgG1, kappa)
# heavy: B1 heavy with I229D, A230P, Y231N
# light: not shown
# notes: copies: 2 + 2
# B4: H237-MB421/MRAL-k0 (antibody, mouse IgG1, kappa)
# heavy: B1 heavy with I229P, A230N
# light: not shown
# notes: copies: 2 + 2
# B5: H237-MB406/MRAL-k0 (antibody, mouse IgG1, kappa)
# heavy: B1 heavy with I229P
# light: not shown
# notes: copies: 2 + 2
# B6: H237-MB433/MRAL-k0 (antibody, mouse IgG1, kappa)
# heavy: B1 heavy with I229T, A230P, Y231N
# light: not shown
# notes: copies: 2 + 2
# B7: H237-MB427/MRAL-k0 (antibody, mouse IgG1, kappa)
# heavy: B1 heavy with I229Q, A230P, Y231A
# light: not shown
# notes: copies: 2 + 2
# B8: H237-MB407/MRAL-k0 (antibody, mouse IgG1, kappa)
# heavy: B1 heavy with I229Q
# light: not shown
# notes: copies: 2 + 2
# B9: H237-MB413/MRAL-k0 (antibody, mouse IgG1, kappa)
# heavy: B1 heavy with I229T, A230V
# light: not shown
# notes: copies: 2 + 2
# B10: H237-MB431/MRAL-k0 (antibody, mouse IgG1, kappa)
# heavy: B1 heavy with I229P, A230P, Y231N
# light: not shown
# notes: copies: 2 + 2
# B11: H237-MB419/MRAL-k0 (antibody, mouse IgG1, kappa)
# heavy: B1 heavy with I229D, A230N
# light: not shown
# notes: copies: 2 + 2
# B12: H237-MB428/MRAL-k0 (antibody, mouse IgG1, kappa)
# heavy: B1 heavy with I229T, A230P, Y231A
# light: not shown
# notes: copies: 2 + 2
# B13: H237-MB411/MRAL-k0 (antibody, mouse IgG1, kappa)
# heavy: B1 heavy with I229P, A230V
# light: not shown
# notes: copies: 2 + 2
# B14: H237-MB412/MRAL-k0 (antibody, mouse IgG1, kappa)
# heavy: B1 heavy with I229Q, A230V
# light: not shown
# notes: copies: 2 + 2
# B15: H237-MB430/MRAL-k0 (antibody, mouse IgG1, kappa)
# heavy: B1 heavy with A230P, Y231N
# light: not shown
# notes: copies: 2 + 2
# B16: H237-MB423/MRAL-k0 (antibody, mouse IgG1, kappa)
# heavy: B1 heavy with I229T, A230N
# light: not shown
# notes: copies: 2 + 2
# B17: H237-MB418/MRAL-k0 (antibody, mouse IgG1, kappa)
# heavy: B1 heavy with I229T, A230D
# light: not shown
# notes: copies: 2 + 2
# B18: H237-MB424/MRAL-k0 (antibody, mouse IgG1, kappa)
# heavy: B1 heavy with I229D, A230P, Y231A
# light: not shown
# notes: copies: 2 + 2
# B19: H237-MB417/MRAL-k0 (antibody, mouse IgG1, kappa)
# heavy: B1 heavy with I229Q, A230D
# light: not shown
# notes: copies: 2 + 2
# B20: H237-MB420/MRAL-k0 (antibody, mouse IgG1, kappa)
# heavy: B1 heavy with A230N
# light: not shown
# notes: copies: 2 + 2
# B21: H237-MB409/MRAL-k0 (antibody, mouse IgG1, kappa)
# heavy: B1 heavy with I229D, A230V
# light: not shown
# notes: copies: 2 + 2
# B22: H237-MB416/MRAL-k0 (antibody, mouse IgG1, kappa)
# heavy: B1 heavy with I229P, A230D
# light: not shown
# notes: copies: 2 + 2
# B23: H237-MB426/MRAL-k0 (antibody)
# heavy: B1 heavy with I229P, A230P, Y231A
# light: not shown
# notes: copies: 2 + 2
# B24: H237-MB408/MRAL-k0 (antibody, mouse IgG1, kappa)
# heavy: B1 heavy with I229T
# light: not shown
# notes: copies: 2 + 2
# B25: H237-MB415/MRAL-k0 (antibody, mouse IgG1, kappa)
# heavy: B1 heavy with A230D
# light: not shown
# notes: copies: 2 + 2
# B26: H237-MB422/MRAL-k0 (antibody, mouse IgG1, kappa)
# heavy: B1 heavy with I229Q, A230N
# light: not shown
# notes: copies: 2 + 2
# Target: T1, mouse FcγRII extracellular domain with C-terminal His tag (mouse, UniProt P08101 30-210)
# T1 construct: Made on the basis of NCBI NP-034317.1; also called mFcγRII; mFcgRII
# T1 sequence: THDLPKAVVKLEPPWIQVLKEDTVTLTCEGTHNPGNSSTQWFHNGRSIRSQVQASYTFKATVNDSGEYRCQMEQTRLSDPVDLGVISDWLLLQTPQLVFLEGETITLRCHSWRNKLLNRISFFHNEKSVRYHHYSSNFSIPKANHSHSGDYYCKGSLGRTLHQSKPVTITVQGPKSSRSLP
# Assay: SPR Biacore T200; KD mFcγRIII / KD mFcγRII
Binder,relative I/A (mFcγRII selectivity) (mIgG1 = 1),I/A (mFcγRII selectivity)
B1,18.2,
B2,23.6,
B3,20.3,
B4,19.9,
B5,29.6,
B6,26.2,35.2
B7,31.1,41.7
B8,16.9,
B9,9.1,
B10,26.8,
B11,18.6,25
B12,24.4,32.7
B13,16.4,
B14,13.7,
B15,33,44.3
B16,15.5,
B17,13.1,17.6
B18,20.4,
B19,17.8,
B20,17.5,
B21,18,
B22,30.2,
B23,25.2,
B24,12.5,
B25,17.5,
B26,16.3,

# Target: T2, mouse FcγRIII extracellular domain with C-terminal His tag (mouse, UniProt P08508 31-215)
# T2 construct: Made on the basis of NCBI NP-034318.2; also called mFcγRIII; mFcgRIII
# T2 chain: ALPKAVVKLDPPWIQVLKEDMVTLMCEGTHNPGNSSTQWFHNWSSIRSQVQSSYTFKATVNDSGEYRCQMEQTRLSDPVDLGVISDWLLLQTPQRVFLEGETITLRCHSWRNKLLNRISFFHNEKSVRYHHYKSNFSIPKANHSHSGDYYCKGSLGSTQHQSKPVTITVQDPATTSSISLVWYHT
# Assay: SPR Biacore T200
Binder,relative mFcγRIII-binding activity (mIgG1 = 1),Kd
B1,8,
B2,8.1,
B3,6.8,
B4,9,
B5,6.5,
B6,11.6,24.4 nM
B7,7,40.3 nM
B8,9.8,
B9,11.9,
B10,4.2,
B11,11.6,24.3 nM
B12,8.8,32 nM
B13,8.1,
B14,8.3,
B15,6.3,45 nM
B16,9.2,
B17,20,14.1 nM
B18,5.1,
B19,10.7,
B20,7.1,
B21,10.7,
B22,6.3,
B23,4.4,
B24,13.1,
B25,9.1,
B26,8.9,

# Target: T1, mouse FcγRII extracellular domain with …
# Assay: SPR Biacore T200
Binder,relative mFcγRII-binding activity (mIgG1 = 1),Kd
B1,146,
B2,189,
B3,137,
B4,178,
B5,191,
B6,303,0.694 nM
B7,217,0.966 nM
B8,164,
B9,108,
B10,113,
B11,216,0.974 nM
B12,215,0.977 nM
B13,132,
B14,113,
B15,207,1.02 nM
B16,143,
B17,262,0.802 nM
B18,104,
B19,190,
B20,124,
B21,192,
B22,189,
B23,112,
B24,163,
B25,159,
B26,144,

# Source: patent publication US20150203577A1 (Chugai, published 2015)
